# Laboratory results reported in paper PMC11575404.
# Experiments:
# [1] = biological target: SARS-CoV-2 N protein truncation NΔN180, Myc-tagged (SARS-CoV-2) (UniProt P0DTC9); assay: cross-linking
# [2] = biological target: SARS-CoV-2 N protein truncation NΔN247, Myc-tagged (SARS-CoV-2) (UniProt P0DTC9); assay: cross-linking
Substance,stoichiometry N [1],stoichiometry N [2]
"SARS-CoV-2 N protein truncation NΔN180, Myc-tagged (from UniProt P0DTC9 181-419) (domain or fragment)",2,
"SARS-CoV-2 N protein truncation NΔN247, Myc-tagged (from UniProt P0DTC9 248-419) (domain or fragment)",,2
